Legend:
[1] = target: T1, consensus peptide substrate eEF2p (Ac-RKKYKFNEDTERRRFL)
T1 chain: RKKYKFNEDTERRRFL

[2] = target: arrayed peptide library (198 peptide mixtures with a central fixed Ser/Thr phosphorylation site, degenerate flanking positions and a carboxy-terminal biotin tag)

B1: eEF2 kinase (Elongation Factor 2 Kinase) (protein)
chain: MADEDLIFRLEGVDGGQSPRAGHDGDSDGDSDDEEGYFICPITDDPSSNQNVNSKVNKYYSNLTKSERYSSSGSPANSFHFKEAWKHAIQKAKHMPDPWAEFHLEDIATERATRHRYNAVTGEWLDDEVLIKMASQPFGRGAMRECFRTKKLSNFLHAQQWKGASNYVAKRYIEPVDRDVYFEDVRLQMEAKLWGEEYNRHKPPKQVDIMQMCIIELKDRPGKPLFHLEHYIEGKYIKYNSNSGFVRDDNIRLTPQAFSHFTFERSGHQLIVVDIQGVGDLYTDPQIHTETGTDFGDGNLGVRGMALFFYSHACNRICESMGLAPFDLSPRERDAVNQNTKLLQSAKTILRGTEEKCGSPQVRTLSGSRPPLLRPLSENSGDENMSDVTFDSLPSSPSSATPHSQKLDHLHWPVFSDLDNMASRDHDHLDNHRESENSGDSGYPSEKRGELDDPEPREHGHSYSNRKYESDEDSLGSSGRVCVEKWNLLNSSRLHLPRASAVALEVQRLNALDLEKKIGKSILGKVHLAMVRYHEGGRFCEKGEEWDQESAVFHLEHAANLGELEAIVGLGLMYSQLPHHILADVSLKETEENKTKGFDYLLKAAEAGDRQSMILVARAFDSGQNLSPDRCQDWLEALHWYNTALEMTDCDEGGEYDGMQDEPRYMMLAREAEMLFTGGYGLEKDPQRSGDLYTQAAEAAMEAMKGRLANQYYQKAEEAWAQMEE
In the case of B1, the “fold increase in activity as compared to peptide MH-U” value [1] is reported as 30 to 35 fold increase in activity, the “phosphorylation at a single substrate concentration (100 µM)” value [1] is reported as “both peptides are efficiently phosphorylated by their respective kinases” and the “phosphorylation of peptide library (radiolabel incorporation)” value [2] is reported as “The kinase was able to efficiently phosphorylate peptides within the library”.
